B1: wild-type LKB1: Flag-tagged wild-type LKB1 serine/threonine kinase immunoprecipitated from HT1080 cells (protein)
chain: MEVVDPQQLGMFTEGELMSVGMDTFIHRIDSTEVIYQPRRKRAKLIGKYLMGDLLGEGSYGKVKEVLDSETLCRRAVKILKKKKLRRIPNGEANVKKEIQLLRRLRHKNVIQLVDVLYNEEKQKMYMVMEYCVCGMQEMLDSVPEKRFPVCQAHGYFCQLIDGLEYLHSQGIVHKDIKPGNLLLTTGGTLKISDLGVAEALHPFAADDTCRTSQGSPAFQPPEIANGLDTFSGFKVDIWSAGVTLYNITTGLYPFEGDNIYKLFENIGKGSYAIPGDCGPPLSDLLKGMLEYEPAKRFSIRQIRQHSWFRKKHPPAEAPVPIPPSPDTKDRWRSMTVVPYLEDLHGADEDEDLFDIEDDIIYTQDFTVPGQVPEEEASHNGQRRGLPKAVCMNGTEAAQLSTKSRAEGRAPNPARKACSASSKIRRLSACKQQ
modifications: left off: small tags and cut ends
notes: Flag-tagged wild-type LKB1 serine/threonine kinase immunoprecipitated from HT1080 cells
B2: STRAD-activated LKB1: wild-type LKB1 co-expressed with its coactivating protein STRAD, immunoprecipitated (protein)
chain 1: MEVVDPQQLGMFTEGELMSVGMDTFIHRIDSTEVIYQPRRKRAKLIGKYLMGDLLGEGSYGKVKEVLDSETLCRRAVKILKKKKLRRIPNGEANVKKEIQLLRRLRHKNVIQLVDVLYNEEKQKMYMVMEYCVCGMQEMLDSVPEKRFPVCQAHGYFCQLIDGLEYLHSQGIVHKDIKPGNLLLTTGGTLKISDLGVAEALHPFAADDTCRTSQGSPAFQPPEIANGLDTFSGFKVDIWSAGVTLYNITTGLYPFEGDNIYKLFENIGKGSYAIPGDCGPPLSDLLKGMLEYEPAKRFSIRQIRQHSWFRKKHPPAEAPVPIPPSPDTKDRWRSMTVVPYLEDLHGADEDEDLFDIEDDIIYTQDFTVPGQVPEEEASHNGQRRGLPKAVCMNGTEAAQLSTKSRAEGRAPNPARKACSASSKIRRLSACKQQ
chain 2: MSFLVSKPERIRRWVSEKFIVEGLRDLELFGEQPPGDTRRKTNDASSESIASFSKQEVMSSFLPEGGCYELLTVIGKGFEDLMTVNLARYKPTGEYVTVRRINLEACSNEMVTFLQGELHVSKLFNHPNIVPYRATFIADNELWVVTSFMAYGSAKDLICTHFMDGMNELAIAYILQGVLKALDYIHHMGYVHRSVKASHILISVDGKVYLSGLRSNLSMISHGQRQRVVHDFPKYSVKVLPWLSPEVLQQNLQGYDAKSDIYSVGITACELANGHVPFKDMPATQMLLEKLNGTVPCLLDTSTIPAEELTMSPSRSVANSGLSDSLTTSTPRPSNGDSPSHPYHRTFSPHFHHFVEQCLQRNPDARPSASTLLNHSFFKQIKRRASEALPELLRPVTPITNFEGSQSQDHSGIFGLVTNLEELEVDDWEF
modifications: left off: small tags and cut ends
B3: Kinase-inactive LKB1: kinase-dead LKB1 mutant, alone or coexpressed with STRAD (protein)
chain: MEVVDPQQLGMFTEGELMSVGMDTFIHRIDSTEVIYQPRRKRAKLIGKYLMGDLLGEGSYGKVKEVLDSETLCRRAVIILKKKKLRRIPNGEANVKKEIQLLRRLRHKNVIQLVDVLYNEEKQKMYMVMEYCVCGMQEMLDSVPEKRFPVCQAHGYFCQLIDGLEYLHSQGIVHKDIKPGNLLLTTGGTLKISDLGVAEALHPFAADDTCRTSQGSPAFQPPEIANGLDTFSGFKVDIWSAGVTLYNITTGLYPFEGDNIYKLFENIGKGSYAIPGDCGPPLSDLLKGMLEYEPAKRFSIRQIRQHSWFRKKHPPAEAPVPIPPSPDTKDRWRSMTVVPYLEDLHGADEDEDLFDIEDDIIYTQDFTVPGQVPEEEASHNGQRRGLPKAVCMNGTEAAQLSTKSRAEGRAPNPARKACSASSKIRRLSACKQQ
modifications: left off: small tags and cut ends
notes: kinase-dead LKB1 mutant, alone or coexpressed with STRAD

Target: T1, MBP-AMPK (Rattus norvegicus, UniProt P54645)
T1 construct: MBP-AMPKa (1-312) bacterial fusion protein
T1 sequence (P54645 13-323): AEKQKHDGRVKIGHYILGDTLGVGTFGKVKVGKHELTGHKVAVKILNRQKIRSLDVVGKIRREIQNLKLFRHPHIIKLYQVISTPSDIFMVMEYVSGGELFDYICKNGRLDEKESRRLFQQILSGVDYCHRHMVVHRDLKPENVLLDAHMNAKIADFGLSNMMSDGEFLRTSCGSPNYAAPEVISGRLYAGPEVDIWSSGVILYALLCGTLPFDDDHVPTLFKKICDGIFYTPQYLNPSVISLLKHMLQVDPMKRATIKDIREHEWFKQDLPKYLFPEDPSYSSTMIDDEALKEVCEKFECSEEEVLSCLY
Assay: AMPK kinase activity on SAMS peptide after in vitro phosphorylation by LKB1
Type: biochemical
Details: in vitro phosphorylation of bacterial MBP-AMPK, SAMS peptide substrate
Procedure: FIG. 2a: Lineup of known LKB1 in vitro phosphorylation sites with sites of phosphorylation in human […] and its yeast homologue SNF1p. AMPKα1 Thr 172 (SEQ ID NO:1); SNF1p S.c. Thr 210 (SEQ ID NO:2); STRAD Thr 329 (SEQ ID NO:3); STRAD Thr 419 (SEQ ID NO:4); LKB1 auto Thr 185 (SEQ ID NO:5). FIG. 2b. HT1080 cells were transfected with wild-type or kinase dead (K78I) LKB1 with or without its coactivating protein STRAD. As indicated, LKB1 immunoprecipitations (IPs) were tested for their ability to transphosphorylate bacterial MBP-AMPKα in an in vitro kinase assay. Parallel in vitro kinase assays were performed using ^32P γ-ATP followed by autoradiography or cold ATP followed by immunoblotting for phospho-Thr172 AMPK and the indicated proteins. Wild-type LKB1 IPs were run in duplicate as shown. MBP-AMPK was also tested alone as indicated. Results are typical of 3 separate experiments. FIG. 2c: LKB1 phosphorylation of MBP-AMPK activates its kinase activity towards a peptide substrate (SAMS). LKB1 immunoprecipitates (as in FIG. 2a) were used to phosphorylate MBP-AMPK in vitro and then MBP-AMPK was removed and tested for its ability to trans-phosphorylate the SAMS peptide in the presence of ^32P γ-ATP. Results were performed in two separate experiments in triplicate. LKB1 alone was incapable of detectably phosphorylating the SAMS peptide, and equivalent levels of LKB1 and MBP-AMPK were used in each reaction (data not shown). Samples without LKB1, without SAMS peptide, or without MBP-AMPK all gave similar levels of background (data not shown).
Kinase Assays and Cellular Analysis: AMPK kinase activity was measured using the SAMS peptide as previously described (7). LKB1 phosphorylation of AMPK was carried out in kinase buffer (50 mM Tris pH 7.5, 10 mM MgCl2, 1 mM DTT, 100 μM ATP) for 20 mins at 30° C. For immunopreciptations of active LKB1 kinase, Flag-tagged LKB1 was co-transfected with an equimolar amount of STRAD expression plasmid into HT1080 cells and immunoprecipitated using M2-agarose (Sigma) 24 h post-transfection in NP40 lysis buffer26. […]

| Molecule | induced AMPK kinase activity |
| --- | --- |
| B1 | 27 fold |
| B2 | 50 fold |
| B3 | unable to activate AMPK |

Source: patent publication US20120122991A1, “METHOD FOR TREATING CANCER BY INCREASING AMP-ACTIVATED KINASE ACTIVITY” (Dana-Farber Cancer Institute, Inc., priority 2003, published 2012)
